Source: patent US20230416357A1 (UCB, published 2023)
Where two headings read alike, the source gives them in different places. Blank lines part the entries; values can stand above or below the binder they belong to.

Assays:
Human IL22 [1] = molecular target: T1, Human IL22 (human, UniProt Q9GZX6 34-179); experiment: cell-based or functional assay
T1 sequence: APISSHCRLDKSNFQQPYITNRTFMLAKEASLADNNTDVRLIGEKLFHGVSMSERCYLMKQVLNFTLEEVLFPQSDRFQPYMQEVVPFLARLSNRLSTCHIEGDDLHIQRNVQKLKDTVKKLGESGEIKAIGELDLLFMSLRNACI

Human IL22 [2] = molecular target: T1, Human IL22; experiment: cell-based or functional assay; remark: listed apart in the source
Human IL22 [3] = molecular target: T1, Human IL22; experiment: cell-based or functional assay; remark: listed apart in the source
Human IL22 [4] = molecular target: T1, Human IL22; experiment: SPR Biacore 8K; single experiment
Human IL22 [5] = molecular target: T1, Human IL22; experiment: SPR Biacore T200; antibody captured on anti-human Fab (280 RU), IL22 injected at 20 nM

IC50 (M), Geomean; COLO205 IL-10 release assay (Human IL22 [1]): 5.68e-11 M
B1: rabbit 11041 Fab (Fab, V domains shown)
VH: QSVEESGGRLVTPGTPLTLTCTVSGFSLSSYAMIWVRQAPGEGLEWIGIIDIDGSTYYASWAKGRFTISRTSTTVDLKITSPTTGDTATYFCARDRFVGVDIFDPWGPGTLVTVSS
VL: AVVLTQTASPVSAPVGGTVTIKCQASEDIYTNLAWYQQKPGQPPKLLIYWASTLASGVPSRFKGSGSGTEFTLTISDLECADAATYYCQACVYGNSADSRYTFGGGTEVVVK

IC50 (read off the curve), inhibition of IL-22-induced S100A7 release from human primary keratinocytes (NHEK) (Human IL22 [2]): ~10 nM
IC50 (M), Geomean; COLO205 IL-10 release assay (Human IL22 [3]): 4.27e-11 M
Kd (Human IL22 [4]): < 0.1 nM
IL22 Binding at 20 nM (RU) (Human IL22 [5]): 40 RU
B2: 11041gL13gH14 Fab (Fab, V domains shown)
VH: EVQLVESGGGLVQPGGSLRLSCAVSGFSLSSYAMIWVRQAPGKGLEWIGIIDIEGSTYYASWAKGRFTISRDNSKNTVYLQMNSLRAEDTAVYYCARDRFVGVDIFDPWGQGTLVTVSS
VL: AVQLTQSPSSLSASVGDRVTITCQASEDIYTNLAWYQQKPGKAPKLLIYWASTLASGVPSRFSGSGSGTDFTLTISSLQPEDFATYYCQASVYGNAADSRYTFGGGTKVEIKR
notes: Humanized Fab; also called VR11041
